The target of this assay is retinal guanylate cyclase GC1, eGFP fusion (mGFP-GC1 cells) (human) (UniProt Q02846).

The values below come from publication PMC10673981.

Chain of UniProt Q02846 (Q02846 52-1103): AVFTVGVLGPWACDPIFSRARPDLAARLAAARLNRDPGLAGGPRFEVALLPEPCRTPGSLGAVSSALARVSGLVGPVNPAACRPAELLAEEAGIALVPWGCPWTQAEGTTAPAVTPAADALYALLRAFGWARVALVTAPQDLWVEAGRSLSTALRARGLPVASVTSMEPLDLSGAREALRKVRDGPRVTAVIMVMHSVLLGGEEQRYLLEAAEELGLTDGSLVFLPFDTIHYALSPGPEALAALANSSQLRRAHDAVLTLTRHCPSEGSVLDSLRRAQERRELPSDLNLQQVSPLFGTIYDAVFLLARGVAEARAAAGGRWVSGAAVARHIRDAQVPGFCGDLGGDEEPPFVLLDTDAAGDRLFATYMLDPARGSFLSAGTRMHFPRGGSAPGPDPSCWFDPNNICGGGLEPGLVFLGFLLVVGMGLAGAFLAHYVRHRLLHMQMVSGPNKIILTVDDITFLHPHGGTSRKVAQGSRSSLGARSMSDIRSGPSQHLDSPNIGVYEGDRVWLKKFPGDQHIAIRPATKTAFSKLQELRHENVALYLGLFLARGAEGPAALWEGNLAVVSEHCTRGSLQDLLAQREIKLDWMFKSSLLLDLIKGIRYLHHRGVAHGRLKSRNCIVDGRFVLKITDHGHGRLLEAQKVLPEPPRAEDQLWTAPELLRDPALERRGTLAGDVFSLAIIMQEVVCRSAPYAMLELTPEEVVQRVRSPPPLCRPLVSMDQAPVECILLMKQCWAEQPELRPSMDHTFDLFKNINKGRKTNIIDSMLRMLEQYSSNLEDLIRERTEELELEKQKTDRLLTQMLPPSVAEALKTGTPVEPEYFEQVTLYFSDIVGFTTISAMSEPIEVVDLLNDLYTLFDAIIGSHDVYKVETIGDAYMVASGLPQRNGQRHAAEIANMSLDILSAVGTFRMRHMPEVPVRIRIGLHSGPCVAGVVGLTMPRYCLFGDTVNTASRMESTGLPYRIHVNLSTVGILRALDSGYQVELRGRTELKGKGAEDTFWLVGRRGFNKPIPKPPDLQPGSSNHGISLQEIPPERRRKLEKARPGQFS

“E111V-GCAP1 (cone-rod dystrophy-associated variant of human GCAP1) (from UniProt P43080 1-201) (natural protein)” displayed an EC50: GCAP1 concentration (0–20 µM) at which cGMP synthesis by GC1 in HEK293 cell membranes is half-maximal, at low Ca2+ (< 19 nM) of 1.55 µM. “Human myristoylated WT-GCAP1 (guanylate cyclase-activating protein 1) (from UniProt P43080 1-201) (natural protein)” registered an EC50: GCAP1 concentration (0–20 µM) at which cGMP synthesis by GC1 in HEK293 cell membranes is half-maximal, at low Ca2+ (< 19 nM) of 1.88 µM.
